Key:
[1] = biological target: human CD41a on platelets (human) (UniProt P08514); assay: FACS, platelets, donor D014, positive control
[2] = biological target: human CD41a on platelets (human) (UniProt P08514); assay: FACS, platelets, donor D102, positive control
[3] = biological target: human CD41a on platelets (human) (UniProt P08514); assay: FACS, platelets, donor D016, positive control
[4] = biological target: human CD41a on platelets (human) (UniProt P08514); assay: FACS, platelets, donor D005, positive control
[5] = biological target: human transferrin receptor expressed by Jurkat cells (human) (UniProt P02786); assay: FACS, Jurkat cells, 1 ug
[6] = biological target: human transferrin receptor expressed by normal human cells (RBC, PMN, lymphocytes, monocytes, platelets, HUVEC) (human) (UniProt P02786); assay: FACS, monocytes, donor D016
[7] = biological target: human transferrin receptor expressed by nonhematopoietic cancer cells (human) (UniProt P02786); assay: FACS, Kato III cells, 5 ug
[8] = biological target: human transferrin receptor expressed by nonhematopoietic cancer cells (human) (UniProt P02786); assay: FACS, DLD-1 cells, 5 ug
[9] = biological target: human transferrin receptor expressed by nonhematopoietic cancer cells (human) (UniProt P02786); assay: FACS, H358 cells, 5 ug
[10] = biological target: human transferrin receptor expressed by nonhematopoietic cancer cells (human) (UniProt P02786); assay: FACS, Hep 3B2.1-7 cells, 5 ug
[11] = biological target: human transferrin receptor expressed by normal human cells (RBC, PMN, lymphocytes, monocytes, platelets, HUVEC) (human) (UniProt P02786); assay: FACS, platelets, donor D016
[12] = biological target: human transferrin receptor expressed by normal human cells (RBC, PMN, lymphocytes, monocytes, platelets, HUVEC) (human) (UniProt P02786); assay: FACS, lymphocytes, donor D102
[13] = biological target: human transferrin receptor expressed by nonhematopoietic cancer cells (human) (UniProt P02786); assay: FACS, MDA-MB-453 cells, 5 ug
[14] = biological target: human transferrin receptor expressed by normal human cells (RBC, PMN, lymphocytes, monocytes, platelets, HUVEC) (human) (UniProt P02786); assay: FACS, RBC, donor D005
[15] = biological target: human transferrin receptor expressed by nonhematopoietic cancer cells (human) (UniProt P02786); assay: FACS, SK-OV-3 cells, 5 ug
[16] = biological target: human transferrin receptor expressed by nonhematopoietic cancer cells (human) (UniProt P02786); assay: FACS, WiDr cells, 5 ug
[17] = biological target: human transferrin receptor expressed by nonhematopoietic cancer cells (human) (UniProt P02786); assay: FACS, SU.86.86 cells, 5 ug
[18] = biological target: human transferrin receptor expressed by nonhematopoietic cancer cells (human) (UniProt P02786); assay: FACS, NCI-N87 cells, 5 ug
[19] = biological target: human transferrin receptor expressed by nonhematopoietic cancer cells (human) (UniProt P02786); assay: FACS, Panc02.03B cells, 5 ug
[20] = biological target: human transferrin receptor expressed by nonhematopoietic cancer cells (human) (UniProt P02786); assay: FACS, Hep G2 cells, 5 ug
[21] = biological target: human transferrin receptor expressed by nonhematopoietic cancer cells (human) (UniProt P02786); assay: FACS, H520 cells, 5 ug
[22] = biological target: human transferrin receptor expressed by nonhematopoietic cancer cells (human) (UniProt P02786); assay: FACS, 22Rv1 cells, 5 ug
[23] = biological target: human transferrin receptor expressed by normal human cells (RBC, PMN, lymphocytes, monocytes, platelets, HUVEC) (human) (UniProt P02786); assay: FACS, PMN, donor D016
[24] = biological target: human transferrin receptor expressed by normal human cells (RBC, PMN, lymphocytes, monocytes, platelets, HUVEC) (human) (UniProt P02786); assay: FACS, HUVEC, 5 ug/ml
[25] = biological target: human transferrin receptor expressed by normal human cells (RBC, PMN, lymphocytes, monocytes, platelets, HUVEC) (human) (UniProt P02786); assay: FACS, platelets, donor D102
[26] = biological target: human transferrin receptor expressed by normal human cells (RBC, PMN, lymphocytes, monocytes, platelets, HUVEC) (human) (UniProt P02786); assay: FACS, RBC, donor D014
[27] = biological target: human transferrin receptor expressed by normal human cells (RBC, PMN, lymphocytes, monocytes, platelets, HUVEC) (human) (UniProt P02786); assay: FACS, platelets, donor D005
[28] = biological target: human transferrin receptor expressed by normal human cells (RBC, PMN, lymphocytes, monocytes, platelets, HUVEC) (human) (UniProt P02786); assay: FACS, PMN, donor D005
[29] = biological target: human transferrin receptor expressed by normal human cells (RBC, PMN, lymphocytes, monocytes, platelets, HUVEC) (human) (UniProt P02786); assay: FACS, RBC, donor D102
[30] = biological target: human transferrin receptor expressed by nonhematopoietic cancer cells (human) (UniProt P02786); assay: FACS, PC3 cells, 5 ug
[31] = biological target: human transferrin receptor expressed by nonhematopoietic cancer cells (human) (UniProt P02786); assay: FACS, HEC-1-A cells, 5 ug
[32] = biological target: human transferrin receptor expressed by normal human cells (RBC, PMN, lymphocytes, monocytes, platelets, HUVEC) (human) (UniProt P02786); assay: FACS, lymphocytes, donor D005
[33] = biological target: human transferrin receptor expressed by normal human cells (RBC, PMN, lymphocytes, monocytes, platelets, HUVEC) (human) (UniProt P02786); assay: FACS, monocytes, donor D005
[34] = biological target: human transferrin receptor expressed by nonhematopoietic cancer cells (human) (UniProt P02786); assay: FACS, H727 cells, 5 ug
[35] = biological target: human transferrin receptor expressed by normal human cells (RBC, PMN, lymphocytes, monocytes, platelets, HUVEC) (human) (UniProt P02786); assay: FACS, monocytes, donor D102
[36] = biological target: human transferrin receptor expressed by nonhematopoietic cancer cells (human) (UniProt P02786); assay: FACS, KLE cells, 5 ug
[37] = biological target: human transferrin receptor expressed by normal human cells (RBC, PMN, lymphocytes, monocytes, platelets, HUVEC) (human) (UniProt P02786); assay: FACS, platelets, donor D014
[38] = biological target: human transferrin receptor expressed by normal human cells (RBC, PMN, lymphocytes, monocytes, platelets, HUVEC) (human) (UniProt P02786); assay: FACS, PMN, donor D014
[39] = biological target: human transferrin receptor expressed by normal human cells (RBC, PMN, lymphocytes, monocytes, platelets, HUVEC) (human) (UniProt P02786); assay: FACS, PMN, donor D102
[40] = biological target: human transferrin receptor expressed by nonhematopoietic cancer cells (human) (UniProt P02786); assay: FACS, DU145 cells, 5 ug
[41] = biological target: human transferrin receptor expressed by nonhematopoietic cancer cells (human) (UniProt P02786); assay: FACS, OMC-3 cells, 5 ug
[42] = biological target: human transferrin receptor expressed by normal human cells (RBC, PMN, lymphocytes, monocytes, platelets, HUVEC) (human) (UniProt P02786); assay: FACS, lymphocytes, donor D014
[43] = biological target: human transferrin receptor expressed by normal human cells (RBC, PMN, lymphocytes, monocytes, platelets, HUVEC) (human) (UniProt P02786); assay: FACS, RBC, donor D016
[44] = biological target: human transferrin receptor expressed by nonhematopoietic cancer cells (human) (UniProt P02786); assay: FACS, A549 cells, 5 ug
[45] = biological target: human transferrin receptor expressed by nonhematopoietic cancer cells (human) (UniProt P02786); assay: FACS, COLO205 cells, 5 ug
[46] = biological target: human transferrin receptor expressed by nonhematopoietic cancer cells (human) (UniProt P02786); assay: FACS, SNU-16 cells, 5 ug
[47] = biological target: human transferrin receptor expressed by nonhematopoietic cancer cells (human) (UniProt P02786); assay: FACS, Panc-1 cells, 5 ug
[48] = biological target: human transferrin receptor expressed by normal human cells (RBC, PMN, lymphocytes, monocytes, platelets, HUVEC) (human) (UniProt P02786); assay: FACS, monocytes, donor D014
[49] = biological target: human transferrin receptor expressed by normal human cells (RBC, PMN, lymphocytes, monocytes, platelets, HUVEC) (human) (UniProt P02786); assay: FACS, lymphocytes, donor D016

Sequence of human CD41a on platelets (human) (P08514 32-1039): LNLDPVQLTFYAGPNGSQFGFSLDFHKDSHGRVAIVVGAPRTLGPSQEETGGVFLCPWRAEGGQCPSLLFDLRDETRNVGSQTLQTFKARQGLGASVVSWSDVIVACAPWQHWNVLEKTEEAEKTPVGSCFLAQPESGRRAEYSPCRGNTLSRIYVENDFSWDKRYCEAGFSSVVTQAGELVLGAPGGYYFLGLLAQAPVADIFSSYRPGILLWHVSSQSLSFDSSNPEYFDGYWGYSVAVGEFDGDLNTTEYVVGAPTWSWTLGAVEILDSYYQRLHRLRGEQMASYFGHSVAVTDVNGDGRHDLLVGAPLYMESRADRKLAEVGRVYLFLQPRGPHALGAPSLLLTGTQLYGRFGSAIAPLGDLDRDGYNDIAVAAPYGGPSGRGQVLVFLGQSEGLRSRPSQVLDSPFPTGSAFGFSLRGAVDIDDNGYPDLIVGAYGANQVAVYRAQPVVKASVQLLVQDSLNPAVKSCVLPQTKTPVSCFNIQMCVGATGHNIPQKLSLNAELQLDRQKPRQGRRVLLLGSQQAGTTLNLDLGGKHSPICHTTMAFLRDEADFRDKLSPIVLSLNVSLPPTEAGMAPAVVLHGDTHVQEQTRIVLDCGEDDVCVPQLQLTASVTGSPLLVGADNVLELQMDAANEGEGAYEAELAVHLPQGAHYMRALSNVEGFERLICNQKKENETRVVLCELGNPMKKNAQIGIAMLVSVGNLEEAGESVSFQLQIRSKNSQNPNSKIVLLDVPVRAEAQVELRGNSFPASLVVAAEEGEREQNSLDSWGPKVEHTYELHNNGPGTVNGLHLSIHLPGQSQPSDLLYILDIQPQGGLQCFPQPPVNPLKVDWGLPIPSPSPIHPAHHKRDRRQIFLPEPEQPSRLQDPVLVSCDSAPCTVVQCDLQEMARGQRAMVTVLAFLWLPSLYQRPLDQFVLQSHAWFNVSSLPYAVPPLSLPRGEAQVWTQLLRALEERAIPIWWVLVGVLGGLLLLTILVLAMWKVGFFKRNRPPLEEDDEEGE
Sequence of human transferrin receptor expressed by normal human cells (RBC, PMN, lymphocytes, monocytes, platelets, HUVEC) (human) (P02786 whole entry G142S): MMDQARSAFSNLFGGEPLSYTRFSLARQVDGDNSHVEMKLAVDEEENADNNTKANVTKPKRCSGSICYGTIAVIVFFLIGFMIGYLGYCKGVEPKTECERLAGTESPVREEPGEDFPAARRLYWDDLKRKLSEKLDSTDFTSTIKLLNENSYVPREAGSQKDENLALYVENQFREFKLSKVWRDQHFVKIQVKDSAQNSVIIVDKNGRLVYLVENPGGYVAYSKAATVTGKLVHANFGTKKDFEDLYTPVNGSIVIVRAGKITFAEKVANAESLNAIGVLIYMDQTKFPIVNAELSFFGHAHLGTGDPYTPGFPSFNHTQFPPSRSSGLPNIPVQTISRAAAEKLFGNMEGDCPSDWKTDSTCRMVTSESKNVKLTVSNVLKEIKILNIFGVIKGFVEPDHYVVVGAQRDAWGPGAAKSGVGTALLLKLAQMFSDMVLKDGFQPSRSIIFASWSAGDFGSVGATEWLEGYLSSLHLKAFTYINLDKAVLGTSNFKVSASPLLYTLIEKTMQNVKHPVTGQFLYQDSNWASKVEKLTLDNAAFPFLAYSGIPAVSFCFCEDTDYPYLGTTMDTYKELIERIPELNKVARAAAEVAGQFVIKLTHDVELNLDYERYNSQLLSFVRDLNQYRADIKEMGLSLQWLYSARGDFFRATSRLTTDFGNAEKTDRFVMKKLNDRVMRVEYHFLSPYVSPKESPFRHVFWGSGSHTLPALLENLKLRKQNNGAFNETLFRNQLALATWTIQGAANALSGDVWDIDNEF
Sequence of human transferrin receptor expressed by nonhematopoietic cancer cells (human) (P02786 whole entry G142S): as above
Sequence of human transferrin receptor expressed by Jurkat cells (human) (P02786 whole entry G142S): as above

## PE-conjugated anti-human CD41a (Southern Biotech Cat. No. 9391-09) (antibody)
[1]
  % positive cell binding: 97%
[2]
  % positive cell binding: 78%
[3]
  % positive cell binding: 95%
[4]
  % positive cell binding: 79%

## anti-human transferrin receptor antibody MEM189 (Abcam Cat. No. ab1086)
[5]
  % of gated cells: 100%

## isotype control mouse IgM, kappa (BD Pharmingen Cat. No. 557275) (antibody)
[6]
  % positive cell binding: 1%
[7]
  MFI: 7 MFI
[8]
  MFI: 5 MFI
[9]
  MFI: 4 MFI
[10]
  MFI: 5 MFI
[11]
  % positive cell binding: < 1%
[12]
  % positive cell binding: 3%
[13]
  MFI: 4 MFI
[14]
  % positive cell binding: < 1%
[15]
  MFI: 5 MFI
[16]
  MFI: 5 MFI
[17]
  MFI: 6 MFI
[18]
  MFI: 33 MFI
[19]
  MFI: 5 MFI
[20]
  MFI: 4 MFI
[21]
  MFI: 5 MFI
[22]
  MFI: 7 MFI
[23]
  % positive cell binding: < 1%
[24]
  % positive cell binding: 1%
[25]
  % positive cell binding: < 1%
[26]
  % positive cell binding: < 1%
[27]
  % positive cell binding: < 1%
[28]
  % positive cell binding: < 1%
[29]
  % positive cell binding: < 1%
[30]
  MFI: 3 MFI
[31]
  MFI: 13 MFI
[32]
  % positive cell binding: 4%
[33]
  % positive cell binding: 3%
[34]
  MFI: 9 MFI
[35]
  % positive cell binding: 2%
[36]
  MFI: 10 MFI
[37]
  % positive cell binding: < 1%
[38]
  % positive cell binding: < 1%
[39]
  % positive cell binding: < 1%
[40]
  MFI: 4 MFI
[41]
  MFI: 16 MFI
[42]
  % positive cell binding: 1%
[43]
  % positive cell binding: < 1%
[44]
  MFI: 8 MFI
[45]
  MFI: 3 MFI
[46]
  MFI: 5 MFI
[47]
  MFI: 6 MFI
[48]
  % positive cell binding: < 1%
[49]
  % positive cell binding: 1%

— patent US20130177579A1 (BIOALLIANCE C V, published 2013)
